T1: Cynomolgus MARCO, full length, on cells (cynomolgus, UniProt A0A2K5X0Z2 1-519)
T1 construct: whole, on cells; also called cyno MARCO; CyMARCO
T1 sequence: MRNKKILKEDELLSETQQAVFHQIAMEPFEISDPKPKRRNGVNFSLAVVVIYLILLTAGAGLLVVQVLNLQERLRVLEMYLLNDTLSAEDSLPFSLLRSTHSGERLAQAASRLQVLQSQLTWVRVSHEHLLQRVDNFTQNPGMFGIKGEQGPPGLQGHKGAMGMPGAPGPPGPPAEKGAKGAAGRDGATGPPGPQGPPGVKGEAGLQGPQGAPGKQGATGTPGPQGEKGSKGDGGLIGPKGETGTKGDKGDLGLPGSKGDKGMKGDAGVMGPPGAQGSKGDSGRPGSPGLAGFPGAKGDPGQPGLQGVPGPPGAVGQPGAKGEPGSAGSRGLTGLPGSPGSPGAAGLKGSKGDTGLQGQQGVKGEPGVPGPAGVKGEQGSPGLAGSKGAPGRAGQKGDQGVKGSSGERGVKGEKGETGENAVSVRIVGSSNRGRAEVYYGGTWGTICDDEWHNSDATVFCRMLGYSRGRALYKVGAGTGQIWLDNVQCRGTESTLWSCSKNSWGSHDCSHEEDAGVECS

T2: Human Macrophage Receptor with Collagenous Structure (MARCO), full length, on cells (human, UniProt Q9UEW3 1-520)
T2 construct: the cell type is named under assay; also called huMARCO; HuMARCO
T2 sequence: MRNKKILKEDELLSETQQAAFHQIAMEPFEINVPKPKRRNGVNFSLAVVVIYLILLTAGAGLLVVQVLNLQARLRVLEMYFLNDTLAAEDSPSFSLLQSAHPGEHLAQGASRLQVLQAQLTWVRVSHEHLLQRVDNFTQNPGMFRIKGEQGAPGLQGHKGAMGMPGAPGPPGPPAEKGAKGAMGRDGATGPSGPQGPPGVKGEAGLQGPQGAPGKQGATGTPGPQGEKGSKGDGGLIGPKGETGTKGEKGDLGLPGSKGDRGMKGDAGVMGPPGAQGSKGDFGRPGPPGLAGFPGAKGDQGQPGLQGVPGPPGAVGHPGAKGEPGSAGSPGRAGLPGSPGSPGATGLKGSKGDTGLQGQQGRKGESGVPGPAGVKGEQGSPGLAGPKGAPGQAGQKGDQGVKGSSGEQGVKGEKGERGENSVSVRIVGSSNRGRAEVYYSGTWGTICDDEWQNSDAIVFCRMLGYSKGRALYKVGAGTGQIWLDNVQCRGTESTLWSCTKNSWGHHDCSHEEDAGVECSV

T3: recombinant cynomolgus MARCO protein (cynomolgus, UniProt A0A2K5X0Z2 65-519)
T3 construct: Construct not described; also called cyno MARCO; cynoMARCO
T3 sequence: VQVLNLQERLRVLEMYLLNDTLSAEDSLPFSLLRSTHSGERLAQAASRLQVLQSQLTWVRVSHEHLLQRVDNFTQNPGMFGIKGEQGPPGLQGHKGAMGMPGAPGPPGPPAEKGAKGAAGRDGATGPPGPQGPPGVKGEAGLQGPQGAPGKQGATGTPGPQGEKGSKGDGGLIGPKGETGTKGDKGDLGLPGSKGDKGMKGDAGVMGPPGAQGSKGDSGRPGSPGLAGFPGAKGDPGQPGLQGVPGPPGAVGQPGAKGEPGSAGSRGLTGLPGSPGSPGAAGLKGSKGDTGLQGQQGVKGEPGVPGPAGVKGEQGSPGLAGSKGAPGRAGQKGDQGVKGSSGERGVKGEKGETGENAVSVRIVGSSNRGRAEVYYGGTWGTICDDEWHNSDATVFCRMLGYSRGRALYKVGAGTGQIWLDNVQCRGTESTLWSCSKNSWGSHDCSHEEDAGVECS

T4: N-terminally polyhistidine tagged human MARCO ECD (147-520), recombinant (human, UniProt Q9UEW3 147-520)
T4 construct: also called PI-RG-3000; recombinant human MARCO; not shown: N-terminal polyhistidine tag
T4 sequence: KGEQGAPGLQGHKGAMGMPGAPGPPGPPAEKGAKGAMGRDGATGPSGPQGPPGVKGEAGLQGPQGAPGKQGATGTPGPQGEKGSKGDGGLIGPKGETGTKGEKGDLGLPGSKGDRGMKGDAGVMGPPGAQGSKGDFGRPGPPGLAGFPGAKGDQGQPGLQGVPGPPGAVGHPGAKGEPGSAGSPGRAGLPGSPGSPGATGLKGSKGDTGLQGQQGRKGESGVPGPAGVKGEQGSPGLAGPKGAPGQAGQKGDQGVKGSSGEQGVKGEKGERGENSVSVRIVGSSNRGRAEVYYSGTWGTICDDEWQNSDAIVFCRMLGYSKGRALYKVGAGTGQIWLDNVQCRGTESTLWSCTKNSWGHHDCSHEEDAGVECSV


Legend:
[1] = molecular target: T1, Cynomolgus MARCO, full length, on cells; assay: flow cytometry, 293T CyMARCO cells
Method in brief: (§1)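 Geometric mean fluorescence intensity from flow cytometry, analysed in FlowJo and Prism, served as the readout of binding to HEK293T cells carrying human or cynomolgus MARCO. Cells were stained with Zombie NIR for viability and plated at 100,000 cells/well. An 8-point three-fold antibody dilution from 100 nM in D-PBS/2% FBS/2 mM EDTA was applied for 1 hr on ice, followed by APC goat anti-mouse IgG for 30 min on ice, with acquisition on an Attune NxT.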

[2] = molecular target: T2, Human Macrophage Receptor with …; assay: flow cytometry, 293T HuMARCO cells
Method in brief: as §1

[3] = molecular target: T3, recombinant cynomolgus MARCO protein; assay: Biacore (SPR), recombinant cyno MARCO
[4] = molecular target: T4, N-terminally polyhistidine tagged human …; assay: Biacore (SPR), recombinant human MARCO
Method in brief: (§2)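 Binding kinetics and affinity of antibodies for the N-terminally His-tagged human MARCO extracellular domain (147-520) were determined by surface plasmon resonance with multi-cycle kinetics on a Biacore T200. The antibodies were captured on a CM4 chip carrying amine-coupled anti-mouse Fc mAb (4500 RU target), and the runs were done at 25° C in 10 mM HEPES pH 7.4, 150 mM NaCl, 3 mM EDTA, 0.05% surfactant P20. The analyte was injected at 0.625–10 nM with 90 s association and 600 s dissociation, and the constants were fitted in BIAevaluation 3.1.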

[5] = molecular target: T4, N-terminally polyhistidine tagged human …; assay: Biacore (SPR), binding affinity to human MARCO
Method in brief: as §2

[6] = molecular target: T2, Human Macrophage Receptor with …; assay: flow cytometry, cells overexpressing human MARCO; hu (first of hu/cyn)
[7] = molecular target: T1, Cynomolgus MARCO, full length, on cells; assay: flow cytometry, cells overexpressing cyno MARCO; cyn (second of hu/cyn)
[8] = molecular target: T5, hVar3 (RG3036) (human, UniProt Q9UEW3 147-520); assay: ELISA on recombinant hVar3 protein, A450
T5 construct: Human MARCO His-CLD-SRCR with Q452D, Y472S and K473S (already in the entry); also called recombinant human SRCR MARCO hVar3 protein

[9] = molecular target: T5, hVar3 (RG3036); assay: ELISA on hVar3

Binder | Kd [3] [nM] | Kd [4] [nM] | koff [4] [s⁻¹] | Kd [5] [nM] | EC50 [6] [nM] | EC50 [7] [nM] | other results
PI-HX-3017 (antibody, rat IgG1, V domains shown, Rat IgG1 hybridoma antibody; also called PI-3009 (name of the recombinant form)) VH: EVQLVESGGGLVQPGRSLKFSCSASGFTFSAYSMAWVRQAPKTGLEWVATIIYDGSSTYYRDSVKGRFTISRDNAKNTLYLQMDSLRSEDTATYYCARLGYSGHYFDYWGQGVMVTVSS VL: DTVLTQSPALAVSLGQRVTISCQASESVSSSLHSYLHWYQQKPGQQPKLLIYRASNLESGVPARFSGSGSGTDFTLNIDPVEADDIATYFCQQSWNDPRTFGGGTKLELK | – | – | – | – | – | – | binding result [1]: no binding; binding result [2]: no binding
PI-3046-AB (antibody, human IgG4 S228P, kappa) heavy: not shown light: DIQMTQSPSSLSASVGDRVTITCRASEGISNDLAWYQQKPGKAPKLLIYAASRLQSGVPSRFSGSGSGTDYTLTISSMQPEDFATYYCQQSYKYPLTFGQGTKLEIKRTVAAPSVFIFPPSDEQLKSGTASVVCLLNNFYPREAKVQWKVDNALQSGNSQESVTEQDSKDSTYSLSSTLTLSKADYEKHKVYACEVTHQGLSSPVTKSFNRGEC | 1.1 | 0.78 | 0.000371 | 0.78 | 0.821 | 1.07 | –
PI-3047-AB (antibody, human IgG4 S228P, kappa, Humanized PI-HX-3011, hIgG4) heavy: not shown light: DIQMTQSPSSLSASVGDRVTITCRASAGISNDLAWYQQKPGKAPKLLIYAASRLQDGVPSRFSGSGSGTDFTLTISSMQPEDFATYYCQQSYKYPWTFGQGTKLEIKRTVAAPSVFIFPPSDEQLKSGTASVVCLLNNFYPREAKVQWKVDNALQSGNSQESVTEQDSKDSTYSLSSTLTLSKADYEKHKVYACEVTHQGLSSPVTKSFNRGEC | 0.79 | 0.72 | 0.000337 | 0.72 | 0.796 | 1.39 | –
PI-3048-AB (antibody, human IgG4 S228P, kappa) heavy: not shown light: DIQMTQSPSSLSASVGDRVTITCRASEGISNDLAWYQQKPGKAPKLLIYAASRLQDGVPSRFSGSGSGTDYTLTISSLQPEDFATYYCQQSYKYPLTFGQGTKLEIKRTVAAPSVFIFPPSDEQLKSGTASVVCLLNNFYPREAKVQWKVDNALQSGNSQESVTEQDSKDSTYSLSSTLTLSKADYEKHKVYACEVTHQGLSSPVTKSFNRGEC | 1.81 | 1.05 | 0.000386 | 1.05 | 0.721 | 2.39 | –
PI-HX-3001 (antibody, rat IgG2a, V domains shown, Rat IgG2a hybridoma antibody; also called PI-3006 (name of the recombinant form)) VH: EVQLVESGGGLVKPGASLKLSCVASGFTFSDYWMNWVRQTPGKTMEWIGDIKDDGSYTNYTPSLKNRFTISRDNAKSTLYLQMNNVRSEDTGTYYCTSGGVFDYWGQGVMVTVSS VL: EIVLTQSPTTMAASPGEMVTITCRASSSVNYMHWFQQKSGTSPKPWIYDTSKLASGVPDRFSGSGSGTSYSLTISSMEAEDAASYYCLQRSTFPPTFGAGTKLELK | – | – | – | – | – | – | binding result [1]: no binding; binding result [2]: no binding
PI-3019-AB (antibody, mouse IgG2a, kappa) heavy: EVQLVESGGGLVQPGSSLKLSCVASKFTFSNYGMNWIRQAPKKGLEWIALIYYNSNNKYYADSVKGRFTISRDNSKNTLYLEMNSLRSEDTAMYYCAKSLTGGSDYFDSWGQGVMVTVSSAKTTAPSVYPLAPVCGDTTGSSVTLGCLVKGYFPEPVTLTWNSGSLSSGVHTFPAVLQSDLYTLSSSVTVTSSTWPSQSITCNVAHPASSTKVDKKIEPRGPTIKPCPPCKCPAPNLLGGPSVFIFPPKIKDVLMISLSPIVTCVVVDVSEDDPDVQISWFVNNVEVHTAQTQTHREDYNSTLRVVSALPIQHQDWMSGKEFKCKVNNKDLPAPIERTISKPKGSVRAPQVYVLPPPEEEMTKKQVTLTCMVTDFMPEDIYVEWTNNGKTELNYKNTEPVLDSDGSYFMYSKLRVEKKNWVERNSYSCSVVHEGLHNHHTTKSFSRTPGK light: DVQMTQSPSYLAASPGESVSISCKASKSIGTFLAWYQEKPEKTNKLLIYSGSTLQSGTPSRFSGSGSGTDFTLTIRNLEPEDFAVYYCQQHDEYPFTFGSGTKLEIKRADAAPTVSIFPPSSEQLTSGGASVVCFLNNFYPKDINVKWKIDGSERQNGVLNSWTDQDSKDSTYSMSSTLTLTKDEYERHNSYTCEATHKTSTSPIVKSFNRNEC | – | – | – | – | – | – | binding result [8]: binds
PI-3020-AB (antibody, human IgG4, kappa) heavy: not shown light: DIQMTQSPASLSTSLGETVSIECLASEGISNDLAWYQQKSGKSPQLLIYAASRLQDGVPSRFSGSGSGTRYSLKISGMQPEDEADYFCQQSYKYPLTFGSGTKLEIKRTVAAPSVFIFPPSDEQLKSGTASVVCLLNNFYPREAKVQWKVDNALQSGNSQESVTEQDSKDSTYSLSSTLTLSKADYEKHKVYACEVTHQGLSSPVTKSFNRGEC | – | – | – | – | – | – | binding result [9]: no binding
